Laboratory results as given in publication PMC9709061.

Target: HSP90–CDC37–BRAF^V600E complex (human) (UniProt P08238)
Test: cryo-EM structure; HSP90–CDC37–BRAF^V600E complex incubated with PP5 D274N, purified by SEC, cross-linked with 1 mM BS3; one sample gave three classes: HCK (3.4 Å), HCK-P open (4.2 Å), HCK-P closed (3.9 Å); PP5 modelled by rigid-body docking

Chain of HSP90–CDC37–BRAF^V600E complex (human) (P08238 whole entry, chain 1 of 3): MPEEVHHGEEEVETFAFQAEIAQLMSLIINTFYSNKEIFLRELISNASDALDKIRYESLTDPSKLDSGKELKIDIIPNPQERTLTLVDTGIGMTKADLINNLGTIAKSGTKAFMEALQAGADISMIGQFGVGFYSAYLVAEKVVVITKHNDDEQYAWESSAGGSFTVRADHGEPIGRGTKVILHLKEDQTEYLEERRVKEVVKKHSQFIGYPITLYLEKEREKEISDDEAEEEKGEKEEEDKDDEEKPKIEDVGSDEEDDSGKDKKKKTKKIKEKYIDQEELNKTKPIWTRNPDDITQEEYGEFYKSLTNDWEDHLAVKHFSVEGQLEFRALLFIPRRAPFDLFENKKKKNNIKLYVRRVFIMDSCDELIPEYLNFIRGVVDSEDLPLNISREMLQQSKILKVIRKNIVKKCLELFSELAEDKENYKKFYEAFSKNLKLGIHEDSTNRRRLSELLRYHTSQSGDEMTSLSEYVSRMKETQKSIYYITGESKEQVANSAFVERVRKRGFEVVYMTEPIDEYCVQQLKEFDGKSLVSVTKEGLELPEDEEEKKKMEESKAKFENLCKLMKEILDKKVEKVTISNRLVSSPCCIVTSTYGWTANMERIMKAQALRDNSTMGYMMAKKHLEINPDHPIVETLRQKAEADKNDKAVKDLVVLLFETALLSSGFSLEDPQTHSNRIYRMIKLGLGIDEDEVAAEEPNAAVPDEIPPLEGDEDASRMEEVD
Chain of HSP90–CDC37–BRAF^V600E complex (human) (Q16543 whole entry, chain 2 of 3, further chain): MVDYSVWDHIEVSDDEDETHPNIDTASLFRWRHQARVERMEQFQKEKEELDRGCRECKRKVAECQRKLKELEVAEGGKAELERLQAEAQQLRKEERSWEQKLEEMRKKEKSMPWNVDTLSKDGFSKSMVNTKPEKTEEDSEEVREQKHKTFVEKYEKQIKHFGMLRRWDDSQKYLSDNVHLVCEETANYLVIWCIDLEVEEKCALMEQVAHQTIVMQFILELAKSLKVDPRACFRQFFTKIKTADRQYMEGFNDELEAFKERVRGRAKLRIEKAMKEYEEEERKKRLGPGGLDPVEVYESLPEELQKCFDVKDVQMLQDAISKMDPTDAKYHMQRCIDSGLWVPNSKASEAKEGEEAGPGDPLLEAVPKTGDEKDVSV
Chain of HSP90–CDC37–BRAF^V600E complex (human) (P15056 whole entry V600E, chain 3 of 3, further chain): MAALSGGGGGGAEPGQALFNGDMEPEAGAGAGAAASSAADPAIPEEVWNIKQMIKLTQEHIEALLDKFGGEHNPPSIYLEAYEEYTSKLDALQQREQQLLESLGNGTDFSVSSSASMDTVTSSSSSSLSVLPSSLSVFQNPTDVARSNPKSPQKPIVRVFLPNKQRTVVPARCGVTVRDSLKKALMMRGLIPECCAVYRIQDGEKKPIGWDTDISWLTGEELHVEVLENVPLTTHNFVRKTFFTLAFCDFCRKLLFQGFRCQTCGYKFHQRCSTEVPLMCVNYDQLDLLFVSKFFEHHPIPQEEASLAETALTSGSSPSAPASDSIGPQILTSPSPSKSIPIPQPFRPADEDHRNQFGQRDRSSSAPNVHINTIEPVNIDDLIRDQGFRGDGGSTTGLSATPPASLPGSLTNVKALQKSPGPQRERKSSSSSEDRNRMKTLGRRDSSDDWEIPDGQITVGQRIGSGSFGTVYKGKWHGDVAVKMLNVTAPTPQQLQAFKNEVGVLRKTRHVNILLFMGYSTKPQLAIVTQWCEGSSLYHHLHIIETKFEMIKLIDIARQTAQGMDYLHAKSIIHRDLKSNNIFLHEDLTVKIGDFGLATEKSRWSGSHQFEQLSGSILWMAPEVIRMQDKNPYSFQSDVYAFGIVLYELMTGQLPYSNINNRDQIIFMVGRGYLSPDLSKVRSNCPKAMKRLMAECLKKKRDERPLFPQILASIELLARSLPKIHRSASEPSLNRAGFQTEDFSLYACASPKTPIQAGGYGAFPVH

stoichiometry N: 1
B1: PP5 D274N (enzyme)
chain: RDEPPADGALKRAEELKTQANDYFKAKDYENAIKFYSQAIELNPSNAIYYGNRSLAYLRTECYGYALGDATRAIELDKKYIKGYYRRAASNMALGKFRAALRDYETVVKVKPHDKDAKMKYQECNKIVKQKAFERAIAGDEHKRSVVDSLDIESMTIEDEYSGPKLEDGKVTISFMKELMQWYKDQKKLHRKCAYQILVQVKEVLSKLSTLVETTLKETEKITVCGDTHGQFYDLLNIFELNGLPSETNPYIFNGDFVNRGSFSVEVILTLFGFKLLYPDHFHLLRGNHETDNMNQIYGFEGEVKAKYTAQMYELFSEVFEWLPLAQCINGKVLIMHGGLFSEDGVTLDDIRKIERNRQPPDSGPMCDLLWSDPQPQNGRSISKRGVSCQFGPDVTKAFLEENNLDYIIRSHEVKAEGYEVAHGGRCVTVFSAPNYCDQMGNKASYIHLQGSDLRPQFHQFTAVPHPNVKPMAYANTLLQLGMM
